According to PMC9896449:

Tests used:
[1] = molecular target: BiShAb0201 (ShAb02 VNAR - (GGGGS)5 - ShAb01 VNAR - human IgG1 Fc) (nurse shark (Ginglymostoma cirratum)); test: BLI
[2] = molecular target: ShAb01H02K (knob-in-hole heterodimer of ShAb01-Fc and ShAb02-Fc) (nurse shark (Ginglymostoma cirratum)); test: BLI

Row | Substance | Kd [1] [nM] | koff [1] [s⁻¹] | kon [1] [M⁻¹ s⁻¹] | Kd [2] [nM] | koff [2] [s⁻¹] | kon [2] [M⁻¹ s⁻¹]
1 | SARS-CoV-2 RBD B.1.1.7, Alpha (N501Y) (from UniProt P0DTC2 331-527) (domain or fragment) | 1.8 | 0.00037 | 207000 | 1.5 | 0.000513 | 341000
2 | SARS-CoV-2 RBD B.1.351, Beta (K417N, E484K, N501Y) (from UniProt P0DTC2 331-527) (domain or fragment) | 2.1 | 0.000436 | 206000 | 1.8 | 0.000538 | 294000
3 | SARS-CoV-2 RBD B.1.427/429, Epsilon (L452R) (from UniProt P0DTC2 331-527) (domain or fragment) | 1.2 | 0.000133 | 109000 | 0.08 | 1.21e-05 | 156000
4 | SARS-CoV-2 RBD B.1.525, Eta, Iota (E484K) (from UniProt P0DTC2 331-527) (domain or fragment) | 2 | 0.000415 | 210000 | 1.6 | 0.000511 | 310000
5 | SARS-CoV-2 RBD B.1.617, Kappa (L452R, E484Q) (from UniProt P0DTC2 331-527) (domain or fragment) | 4.4 | 0.000238 | 53600 | 2.2 | 0.000326 | 151000
6 | SARS-CoV-2 RBD B.1.617.2, Delta (L452R, T478K) (from UniProt P0DTC2 331-527) (domain or fragment) | 0.72 | 4.1e-05 | 57000 | < 0.001 | < 1e-07 | 90000
7 | SARS-CoV-2 RBD E484K, N501Y (from UniProt P0DTC2 331-527) (domain or fragment) | 2.3 | 0.000412 | 177000 | 1.9 | 0.000512 | 277000
8 | SARS-CoV-2 RBD K417N (from UniProt P0DTC2 331-527) (domain or fragment) | 1.7 | 0.000352 | 211000 | 1.3 | 0.000457 | 353000
9 | SARS-CoV-2 RBD P.1, Gamma (K417T, E484K, N501Y) (from UniProt P0DTC2 331-527) (domain or fragment) | 6.5 | 0.000508 | 78000 | 4.2 | 0.000305 | 73500
